Results published in patent US10533044B2, “Integrin Antagonists” (The General Hospital Corporation, priority 2014, dated 2020).
No end group written: not given here.

Key:
αVβ3(N339/S) = target: T1, αVβ3(N339/S) (Homo sapiens, UniProt P05106+P06756, N365S); assay: Binding of fluoresceinated FN10 to WT αVβ3 or αVβ3(N339/S) expressed on HEK293T cells
T1 construct: pcDNA3 plasmids encoding full-length WT αVβ3, αVβ3(Y122/A), αVβ3(N339/S); expressed in transfected cells; host or cells: HEK293T (transient)
T1 sequence (P06756 31-889 limits assumed): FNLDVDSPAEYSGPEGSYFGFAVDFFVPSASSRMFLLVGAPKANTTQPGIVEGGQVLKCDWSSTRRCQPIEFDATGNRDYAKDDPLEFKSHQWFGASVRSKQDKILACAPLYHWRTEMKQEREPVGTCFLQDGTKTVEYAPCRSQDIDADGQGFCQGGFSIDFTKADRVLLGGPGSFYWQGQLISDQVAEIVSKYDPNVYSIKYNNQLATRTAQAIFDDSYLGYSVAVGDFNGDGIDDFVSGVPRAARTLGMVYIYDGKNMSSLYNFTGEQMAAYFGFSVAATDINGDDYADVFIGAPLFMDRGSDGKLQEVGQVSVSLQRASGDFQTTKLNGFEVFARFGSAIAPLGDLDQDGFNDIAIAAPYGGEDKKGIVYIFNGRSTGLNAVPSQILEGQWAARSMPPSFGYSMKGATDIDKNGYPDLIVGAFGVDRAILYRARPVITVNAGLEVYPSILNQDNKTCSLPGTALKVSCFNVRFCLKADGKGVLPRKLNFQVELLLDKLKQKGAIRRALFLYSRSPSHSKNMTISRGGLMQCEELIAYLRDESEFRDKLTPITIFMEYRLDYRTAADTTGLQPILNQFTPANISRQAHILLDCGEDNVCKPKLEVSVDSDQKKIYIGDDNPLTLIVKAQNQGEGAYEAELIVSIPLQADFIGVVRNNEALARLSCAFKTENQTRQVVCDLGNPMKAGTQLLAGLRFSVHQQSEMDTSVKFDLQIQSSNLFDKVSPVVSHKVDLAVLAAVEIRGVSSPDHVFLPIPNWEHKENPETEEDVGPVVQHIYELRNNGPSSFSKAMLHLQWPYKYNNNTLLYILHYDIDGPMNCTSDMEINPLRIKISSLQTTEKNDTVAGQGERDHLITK
T1 sequence (P06756 891-1048 partner limits assumed): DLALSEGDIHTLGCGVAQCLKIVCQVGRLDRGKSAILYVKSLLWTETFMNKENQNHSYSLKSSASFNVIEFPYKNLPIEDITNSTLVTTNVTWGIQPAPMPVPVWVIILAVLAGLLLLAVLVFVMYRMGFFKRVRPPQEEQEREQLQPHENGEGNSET
T1 sequence (P05106 27-788 N365S): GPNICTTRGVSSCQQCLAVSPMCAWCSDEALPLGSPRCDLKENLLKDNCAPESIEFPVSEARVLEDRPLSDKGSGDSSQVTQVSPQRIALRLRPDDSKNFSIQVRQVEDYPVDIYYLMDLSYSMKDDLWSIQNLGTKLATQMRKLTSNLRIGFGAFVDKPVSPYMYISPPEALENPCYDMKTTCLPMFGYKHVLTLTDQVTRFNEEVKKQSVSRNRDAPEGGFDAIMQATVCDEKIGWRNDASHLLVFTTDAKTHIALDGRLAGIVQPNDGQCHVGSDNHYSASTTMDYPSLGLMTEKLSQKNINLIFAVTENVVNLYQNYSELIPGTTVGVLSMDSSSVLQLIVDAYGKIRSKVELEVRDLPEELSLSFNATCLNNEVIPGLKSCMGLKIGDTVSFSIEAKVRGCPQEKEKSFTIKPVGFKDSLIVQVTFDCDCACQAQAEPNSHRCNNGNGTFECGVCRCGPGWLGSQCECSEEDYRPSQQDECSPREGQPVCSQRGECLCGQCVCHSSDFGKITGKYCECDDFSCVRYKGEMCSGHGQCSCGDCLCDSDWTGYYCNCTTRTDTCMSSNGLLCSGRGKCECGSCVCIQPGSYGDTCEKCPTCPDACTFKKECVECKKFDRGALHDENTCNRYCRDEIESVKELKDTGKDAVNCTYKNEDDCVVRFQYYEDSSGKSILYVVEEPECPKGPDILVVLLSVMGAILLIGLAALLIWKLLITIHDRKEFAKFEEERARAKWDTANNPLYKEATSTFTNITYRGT
Description: The human erythroleukemia cell line K562 stably expressing recombinant αVβ3 (K562-αVβ3) and the human melanoma cell line M21, which constitutively expresses αVβ3, have been previously described (Xiong, J. P. et al. The Journal of Cell Biology 186, 589-600 (2009); and Mitjans, F. et al. J Cell Sci 108 (Pt 8), 2825-2838 (1995)). Cells were maintained in Iscove's modified Dulbecco's medium (K562-αVβ3) or RPMI1640 (M21), supplemented with 10% fetal calf serum, 2 mM L-glutamine, penicillin and streptomycin, plus G418 (0.5-1.0 mg/ml) in cultured K562-αVβ3. HEK293T (ATCC) were transiently co-transfected with pcDNA3 plasmids encoding full-length WT αVβ3, αVβ3(Y122/A), αVβ3(N339/S), or αV(N266/Q)β3(N339/S) using Lipofectamine 2000 reagent (Invitrogen) according to the manufacturer's protocol.
In cellular and biochemical assays where calcium, magnesium or manganese ions were used, they were each at final concentrations of 1 mM. […] Binding of soluble FN10 to αVβ3^+ cells was expressed as mean fluorescence intensity (MR), as determined using the CellQuest software (BD). […] Mean and SD from independent experiments were calculated, and compared using Student's t test.

K562-αVβ3 cells = assay: Mn2+-induced spreading of K562-αVβ3 cells on immobilized FN forms; format: cell-based, human; settings: 1 mM Mn2+
Description: The various FN-coated surfaces were washed with PBS, and blocked with bovine serum albumin (5% w/v in PBS; lh; 25° C.). K562-αVβ3 cells (5×10^4) were added (in TBS; 1 mM Mn^2+), in the absence or presence of LM609 mAb (10 μg/ml, added 15 min prior to plating). Cells were incubated (2 h; 37° C.), washed three times in warm TBS and fixed with 4% formaldehyde (in PBS; 25° C.; 10 min). Images were captured using an inverted phase microscope (Zeiss Axiovert 40CFL) fitted with a powershot G12 Cannon Camera. ImageJ 1.48a software (National Institutes of Health, USA) was used to quantify cell spreading of 300-400 random selected cells. Spread cells were clearly distinguishable from round, refringent non-spread cells. Representative phase contrast images were collected using Zeiss Axiovert 35 inverted microscope using a CCD camera and Spot software (Diagnostics Instruments). Adhesion of transiently transfected HEK293 expressing equivalent amounts of αVβ3(N339/S) or αV(N266/Q)β3(N339/S) was done by adding cells (3×10^4) in TBS containing Ca^2+/Mg^2+ and 0.1% BSA (w/v) to FN-coated surfaces (45 min; 25° C.). Non-adherent cells were removed by washing and adherent cells fixed (2% paraformaldehyde; 30 min; 25° C.), stained (0.1% Crystal Violet; 30 min; 25° C.), washed with water, air dried and then solubilized (1% SDS). Relative cell attachment was estimated by absorbance of the lysates at 540 nm measured using a SpectraMax M2E microplate reader (Molecular Devices, Sunnyvale, Calif.).

αVβ3 ectodomain = target: T2, αVβ3 ectodomain (Homo sapiens, UniProt P05106+P06756); assay: Hydrodynamic shift assay (molecular sieve chromatography, Stokes radius); settings: in Mn2+ (6.3 nm without ligand)
T2 construct: αVβ3 ectodomain was incubated alone or with FN10; made in house; host or cells: insect cells
T2 sequence (P06756 31-987): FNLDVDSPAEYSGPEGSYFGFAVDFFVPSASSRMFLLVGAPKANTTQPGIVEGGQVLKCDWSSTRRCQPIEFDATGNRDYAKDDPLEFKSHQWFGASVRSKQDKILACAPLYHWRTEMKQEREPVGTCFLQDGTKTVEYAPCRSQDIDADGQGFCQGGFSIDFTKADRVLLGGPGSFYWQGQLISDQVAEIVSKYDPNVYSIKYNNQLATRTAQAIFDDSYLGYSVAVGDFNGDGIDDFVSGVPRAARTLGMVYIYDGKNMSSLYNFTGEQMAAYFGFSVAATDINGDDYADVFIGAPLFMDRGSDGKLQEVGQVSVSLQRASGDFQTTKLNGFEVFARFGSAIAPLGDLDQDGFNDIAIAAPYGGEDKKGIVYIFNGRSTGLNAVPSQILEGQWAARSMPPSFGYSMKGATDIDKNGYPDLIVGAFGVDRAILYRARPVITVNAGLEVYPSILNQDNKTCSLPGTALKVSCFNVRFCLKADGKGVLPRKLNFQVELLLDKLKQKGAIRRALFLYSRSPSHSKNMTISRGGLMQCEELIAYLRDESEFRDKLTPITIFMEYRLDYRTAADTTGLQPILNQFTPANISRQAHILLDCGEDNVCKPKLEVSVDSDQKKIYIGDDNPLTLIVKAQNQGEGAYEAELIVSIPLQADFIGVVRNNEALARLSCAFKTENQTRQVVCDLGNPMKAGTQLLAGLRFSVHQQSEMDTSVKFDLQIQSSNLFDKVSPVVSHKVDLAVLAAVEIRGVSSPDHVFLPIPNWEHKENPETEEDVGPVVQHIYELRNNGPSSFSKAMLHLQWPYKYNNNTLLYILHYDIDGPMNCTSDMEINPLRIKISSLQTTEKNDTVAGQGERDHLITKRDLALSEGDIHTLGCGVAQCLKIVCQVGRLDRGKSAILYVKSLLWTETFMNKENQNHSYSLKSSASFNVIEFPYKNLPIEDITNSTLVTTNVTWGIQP
T2 sequence (P05106 27-718): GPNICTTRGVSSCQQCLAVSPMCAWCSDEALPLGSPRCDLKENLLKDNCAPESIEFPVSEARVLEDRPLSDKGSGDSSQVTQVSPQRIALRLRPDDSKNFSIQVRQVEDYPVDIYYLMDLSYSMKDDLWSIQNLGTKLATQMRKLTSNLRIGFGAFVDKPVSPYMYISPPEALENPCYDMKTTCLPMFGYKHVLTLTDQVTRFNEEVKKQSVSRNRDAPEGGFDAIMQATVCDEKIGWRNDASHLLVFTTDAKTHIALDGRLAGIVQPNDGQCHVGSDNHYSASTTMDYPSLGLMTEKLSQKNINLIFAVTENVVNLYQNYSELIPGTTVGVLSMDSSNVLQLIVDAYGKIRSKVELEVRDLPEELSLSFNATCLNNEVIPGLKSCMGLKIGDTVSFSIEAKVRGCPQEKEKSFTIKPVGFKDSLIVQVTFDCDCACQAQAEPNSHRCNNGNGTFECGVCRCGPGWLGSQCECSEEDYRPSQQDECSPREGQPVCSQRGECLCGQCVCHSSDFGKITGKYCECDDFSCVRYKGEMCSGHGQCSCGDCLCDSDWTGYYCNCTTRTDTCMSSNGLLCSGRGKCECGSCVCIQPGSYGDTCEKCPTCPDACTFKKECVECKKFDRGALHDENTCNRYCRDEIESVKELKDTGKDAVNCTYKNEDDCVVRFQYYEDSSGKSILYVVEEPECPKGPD
Description: αVβ3 ectodomain was incubated alone or with FN10 (at 2:1 FN10/integrin molar ratio) in 145 mM NaCl and 25 mM Tris-HCl, pH 7.4 (TBS) containing Ca^2+, Ca^2+/Mg^2+ or Mn^2+ (20° C.; 1.5 h). Aliquots were taken and chromatographed at room temperature at this time point on a precalibrated Superdex S-200 GL column equilibrated buffer with the same metal ion composition used during the incubation, and Stokes radii were derived as described previously (Xiong, J. P. et al. The Journal of Cell Biology 186, 589-600 (2009)). The elution profiles resolved by molecular sieve chromatography were monitored in-line by UV adsorption at 280 nm. Unliganded ±FN10-treated αVβ3 species were resolved as single discrete symmetrical peaks. Excess FN10 served as an internal standard. Identity of resolved peaks was formally confirmed by SDS-PAGE.

αVβ5 = αVβ5 (Homo sapiens, UniProt P06756+P18084); settings: Moore et al, 2013; cited from earlier work
Chain of αVβ5 (P06756 31-889 limits assumed): as the sequence (P06756 31-889 limits assumed) above
Chain of αVβ5 (P06756 891-1048 partner limits assumed): as the sequence (P06756 891-1048 partner limits assumed) above
Chain of αVβ5 (P18084 24-799): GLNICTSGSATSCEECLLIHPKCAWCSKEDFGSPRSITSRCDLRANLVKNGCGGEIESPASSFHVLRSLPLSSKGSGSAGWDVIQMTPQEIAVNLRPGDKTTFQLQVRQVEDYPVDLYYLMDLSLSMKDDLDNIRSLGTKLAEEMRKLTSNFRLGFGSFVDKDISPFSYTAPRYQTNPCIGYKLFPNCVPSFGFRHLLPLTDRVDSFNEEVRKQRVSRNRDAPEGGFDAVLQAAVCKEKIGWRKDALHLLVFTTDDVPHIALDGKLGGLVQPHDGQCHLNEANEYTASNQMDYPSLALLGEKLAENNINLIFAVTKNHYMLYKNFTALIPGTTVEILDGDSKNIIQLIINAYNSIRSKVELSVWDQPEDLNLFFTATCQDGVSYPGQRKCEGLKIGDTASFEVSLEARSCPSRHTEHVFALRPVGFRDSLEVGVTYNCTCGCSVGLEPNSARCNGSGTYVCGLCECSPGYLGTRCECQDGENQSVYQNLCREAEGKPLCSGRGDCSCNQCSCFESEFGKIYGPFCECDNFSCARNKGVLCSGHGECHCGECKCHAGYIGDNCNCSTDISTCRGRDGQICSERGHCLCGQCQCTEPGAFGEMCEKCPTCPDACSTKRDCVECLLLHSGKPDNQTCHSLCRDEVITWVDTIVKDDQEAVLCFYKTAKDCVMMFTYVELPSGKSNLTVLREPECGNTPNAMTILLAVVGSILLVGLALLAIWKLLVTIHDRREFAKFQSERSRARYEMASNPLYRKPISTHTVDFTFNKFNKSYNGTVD

α5β1 = α5β1 (Homo sapiens, UniProt P05556+P08648); settings: Moore et al, 2013; cited from earlier work
αVβ3 [1] = target: T3, αVβ3 (Homo sapiens, UniProt P05106+P06756); assay: Binding of fluoresceinated fluid-phase FN10 to K562-αVβ3 cells (flow cytometry); settings: 1 mM Ca2+/Mg2+; fold over background
T3 construct: expressed in transfected cells
T3 sequence (P06756 31-889 limits assumed): as the sequence (P06756 31-889 limits assumed) above
T3 sequence (P06756 891-1048 partner limits assumed): as the sequence (P06756 891-1048 partner limits assumed) above
T3 sequence (P05106 27-788): as the sequence (P05106 27-788 N365S) above, with S339N counted along it
Description: In cellular and biochemical assays where calcium, magnesium or manganese ions were used, they were each at final concentrations of 1 mM. Cells stably (K562) or transiently (I-fEK293T) expressing WT or mutant forms of αVβ3 were preincubated (30 min; 0° C.) in the dark with Alexa647-conjugated AP3 (10 μg/ml), washed in Hepes-buffered saline (20 mM Hepes, 150 mM NaCl, pH 7.4) containing BSA (0.1% w/v; washing buffer, WB), incubated in 10 mM EDTA in WB (5 min; 25° C.), then washed three times in WB. […] Binding of soluble FN10 to αVβ3^+ cells was expressed as mean fluorescence intensity (MR), as determined using the CellQuest software (BD). Binding of soluble FN10 to HEK293T was normalized by dividing its MFI by the MFI of Alexa647-conjugated AP3 to the same cells and multiplying by 100. Mean and SD from independent experiments were calculated, and compared using Student's t test.

[2] = tested on: model tumor growth and angiogenesis; settings: in vivo; cited from earlier work
αVβ3 [3] = target: T3, αVβ3; assay: AP5 epitope expression on K562-αVβ3 cells preincubated with knottin-Fc; format: cell-based; settings: Ca2+ and Mg2+ 1 mM each
Description: Cells were washed, resuspended, fixed in 4% paraformaldehyde, and analyzed using FACSCalibur or BD-LSRII flow cytometers (BD Biosciences). Binding of soluble knottin dimers to αVβ3-K562 cells was expressed as mean fluorescence intensity (MFI), as determined using FlowJo software. […] Alexa647-labeled mAb AP5 Fab (10 μg/ml) was added, and cells incubated for an additional 30 min before washing. APC-labeled goat anti-mouse Fc-specific antibody was added to anti-LIBS-1- or anti-LIBS-6-bound M21 cells for an additional 30 min at 4° C. Cells were then washed, resuspended, fixed in 4% paraformaldehyde and analyzed by flow cytometry. AP5 epitope expression was measured and expressed as MFI.
Cells were washed, resuspended, fixed in 4% paraformaldehyde, and analyzed using FACSCalibur or BD-LSRII flow cytometers (BD Biosciences). Binding of soluble knottin dimers to αVβ3-K562 cells was expressed as mean fluorescence intensity (MFI), as determined using FlowJo software. […] APC-labeled goat anti-mouse Fe-specific antibody was added to anti-LIBS-1- or anti-LIBS-6-bound M21 cells for an additional 30 min at 4° C. Cells were then washed, resuspended, fixed in 4% paraformaldehyde and analyzed by flow cytometry. AP5 epitope expression was measured and expressed as MFI.

αVβ3 [4] = target: T3, αVβ3; assay: Binding of knottin-Fc fusion proteins to K562-αVβ3 cells (FACS); settings: Fc fusion in culture supernatant; Ca2+ and Mg2+ 1 mM each
Excerpt: The wild type and modified versions were transiently expressed in HEK293 cells grown in 3% FBS. Culture supernatant contained equivalent amounts of the respective fusion proteins (verified by ELISA) and of the correct size (using western blotting with anti-his tag antibody). Binding of each to K562 cells expressing recombinant αVβ3 (K562-αVβ3) was examined using FACS as described in the methods section of the above-referenced paper, except that the unlabeled bound knottin was detected by adding fluorescienated anti-human Fc mAb.
Wild type and P/W substituted forms of knottin 2.5 F were expressed as Fc fusion proteins in mammalian cells and their abilities to bind cellular αVβ3 and to express the LIBS mAb AP5 were compared. αVβ3-K562 (1×10^6) cells were suspended in 100 μl of culture supernatant containing equivalent amounts (based on ELISA) of WT knottin 2.5 F-Fc fusion protein, knottin 2.5 F (P/W)-Fc, WT knottin 2.5 D-Fc, or knottin 2.5 F (A/W)-Fc or medium alone and incubated for 30 min; 25° C., washed in 400 μl buffer and fluoresceinated anti-FC-specific antibody added for an additional 30 min at 4° C. Cells were washed, resuspended, fixed in 4% paraformaldehyde, and analyzed using FACSCalibur or BD-LSRII flow cytometers (BD Biosciences). Binding of soluble knottin dimers to αVβ3-K562 cells was expressed as mean fluorescence intensity (MFI), as determined using FlowJo software. […]

αVβ3^N/S = αVβ3^N/S (Homo sapiens, UniProt P05106+P06756, N365S); assay: Binding of fluorescein-tagged hFN10-G to preactivated cellular αVβ3(N/S); parameters: pcDNA3 plasmids encoding full-length WT αVβ3, αVβ3(Y122/A), αVβ3(N339/S); expressed in transfected cells; host or cells: HEK293T (transient); settings: N339 to S activation
Chain of αVβ3^N/S (P06756 31-889 limits assumed): as the sequence (P06756 31-889 limits assumed) above
Chain of αVβ3^N/S (P06756 891-1048 partner limits assumed): as the sequence (P06756 891-1048 partner limits assumed) above
Chain of αVβ3^N/S (P05106 27-788 N365S): as the sequence (P05106 27-788 N365S) above
Excerpt: (§1) FIG. 9. […] (A) Superposed RGD-containing loops of hFN10 (gray in original), hFN10-G (pink in original) onto the RGD loop of frog γC (green in original). Sphere represents the metal ion at MIDAS.

αIIbβ3^N/S = target: T4, αIIbβ3^N/S (Homo sapiens, UniProt P05106+P08514, N365S); assay: Binding of fluorescein-tagged hFN10-G to preactivated cellular αIIbβ3(N/S); settings: N339 to S activation
T4 construct: expressed in transfected cells
Excerpt: as §1

## hFN10: mutant high affinity form of the 10th type-III domain of fibronectin, loop PRGDWNEG, SEQ ID NO: 9
αVβ3(N339/S)
  Binding to WT αVβ3 versus active αVβ3(N339/S): similar
K562-αVβ3 cells
  Spreading of K562-αVβ3 cells on immobilized ligand: little spreading
αVβ3 ectodomain
  Stokes' radius (Rs) of αVβ3 complex: 6.3 nm

## knottin 2.5 F: cysteine-knot peptide, chemically synthesized, published sequence (Kimura et al 2009) (GCPRPRGDNPPLTCSQDSDCLAGCVCGPNGFCG)
αVβ5
  Binding to integrin αVβ5: binds
α5β1
  Binding to integrin α5β1: binds

## wtFN10: 10th type-III RGD-domain of wild-type human fibronectin, loop GRGDSPAS, SEQ ID NO: 20 [reference compound]
αVβ3 [1]
  Binding of fluoresceinated FN10 to K562-αVβ3: low background
K562-αVβ3 cells
  Spreading of K562-αVβ3 cells on immobilized ligand: extensive spreading
αVβ3 ectodomain
  Stokes' radius (Rs) of αVβ3 complex: 6.6 nm

## full-length FN: full-length human plasma fibronectin from Sigma-Aldrich
K562-αVβ3 cells
  Spreading of K562-αVβ3 cells on immobilized ligand: extensive spreading

## CC(C)[C@H]1C(=O)N[C@@H](CCCN=C(N)N)C(=O)NCC(=O)N[C@@H](CC(=O)O)C(=O)N[C@H](Cc2ccccc2)C(=O)N1C [cilengitide]
[2]
  Effect on model tumor growth and angiogenesis: paradoxically stimulated model tumor growth and angiogenesis

## P/W knottin 2.5 F: knottin 2.5 F with Proline 10 replaced by Trp, expressed as Fc fusion protein (GCPRPRGDNWPLTCSQDSDCLAGCVCGPNGFCG; disulfide (positions not given here); also: cystine-knot disulfide bonds, pairing not given here, Fc fusion protein)
αVβ3 [3]
  AP5 expression / integrin activation on K562-αVβ3: suppressed AP5 expression
αVβ3 [4]
  Binding to cellular αVβ3 (K562-αVβ3): equivalent

B1: hFN10-G: hFN10 with a glycine inserted after proline 1492, SEQ ID NO: 29 (protein)
chain: SDVPRDLEVVAATPTSLLISWDAPAVTVRYYRITYGETGGNSPVQEFTVPGSKSTATISGLKPGVDYTITVYAVTPGRGDWNEGSKPISINY
αVβ3^N/S
  Binding to preactivated cellular αVβ3^N/S: did not bind
αIIbβ3^N/S
  Binding to preactivated cellular αIIbβ3^N/S: some binding
